Data from paper PMC9521807.

Molecular target: OsRMC-His (rice (Oryza sativa))
Assay: BLI

MoCel6A (analyte of the binding kinetics) (enzyme)
Kd: 0.0219 µM
koff: 0.000845 s⁻¹
kon: 38900 M⁻¹ s⁻¹
